Experimental data as given in US20140271701A1.

Target: serum antibodies (IgG) of Sardinian T1D patients, Example 1 (n=34; Ab+ sera) (human)
Experiment: competition ELISA on MAP3865c125-133-coated plates, sera pre-adsorbed with saturating peptide

Question: How did the percent inhibition turn out when MIAVALAGL [MAP3865c125-133 peptide (…)] was run?
Answer: The percent inhibition was 57 to 89%.
